# Reference: US20060073572A1, “Cytokine structurally related to IL-17” (The Johns Hopkins University, priority 2001, published 2006)
# Key:
# Format in all cases: cell-based, human
# IL-8 = IL-8 expression in NHBE cells (RT-PCR and ELISA); conditions: 100 ng/ml
# From the text: FIGS. 3A-3C. FIG. 3A, Expression of ML-1 protein in COS-7 cells. COS-7 cells were transfected with a gene construct containing full-length ML-1 sequence and a tag sequence encoding poly (His) peptide. ML-1-His fusion proteins were purified from supernatants of the transfected cells using a His affinity column, run on an 8-16% SDS-polyacrylamide gel under reducing conditions, and analyzed by Western Blot using anti-His monoclonal antibody. Lane 1 represents a mock-transfected sample. Lane 2 represents an ML-1-transfected sample. The location of a 19.5 kd marker is indicated. FIG. 3B, Effect of ML-1 on IL-8 gene expression. Human primary bronchial epithelial cells (NHBE cells) were treated with different stimuli. The cells were harvested 4 hours after stimulation, and total RNA was extracted and subjected to RT-PCR using IL-8 and G3PDH primers. Lane 1, medium only; lane 2, cells treated with rIL-17 (100 ng/ml); lane 3, cells treated with purified His-tagged protein (Positope, 100 ng/ml); lane 4, cells treated with ML-1 (100 ng/ml). FIG. 3C, Effect of ML-1 on IL-8 protein production. NHBE cells were treated with the same stimuli used in FIG. 3B, and the supernatants were harvested 48 hours after stimulation.
# Primary human bronchial epithelial (NHBE) cells were purchased from Clonetics (San Diego, Calif.) and cultured according to the manufacturer's instructions. The cells were treated with IL-17 (100 ng/ml), ML-1 (100 ng/ml), or a control His-tagged protein (Positope, 100 ng/ml; Invitrogen, Carlsbad, Calif.). The affinity-purified control His protein was dissolved in the same buffer as ML-1. Total RNA was extracted using Rneasy (Qiagen, Chatsworth, Calif.) from 1×10^6 cells 4 hours after stimulation or exchange of media. The protocol for cDNA synthesis was that described above. For PCR, the sequences of PCR primers were based on the human IL-8 cDNA sequence. The sequences of PCR primers for IL-8 were: forward, 5′-TCTGCAGCTCTGTGTGAAG-3′ (SEQ ID NO:14) and reverse, 5′-TAATTTCTGTGTTGGCGCA-3′ (SEQ ID NO:15). The amplification reaction was performed for 23 cycles with denaturation at 94° C. for 45 seconds, annealing at 56° C. for 45 seconds, and extension at 72° C. for 45 seconds PCR products were detected by ethidium bromide staining. The expected size for IL-8 was 154 basepairs. IL-8 protein levels in the collected supernatants were determined with a commercially available ELISA kit (Biosource, Camarillo, Calif.) according to the manufacturer's instructions.
# ERK1/2 = assay: Western blotting of ERK1/2 phosphorylation in HUVECs; conditions: ML-1 100 ng/ml
# Procedure: (§1) FIGS. 6A-6D. Kinetic activation of ERK1/2 by ML-1 in PBECs (FIG. 6A) and HUVECs (FIG. 6B). The cells were incubated with or without ML-1 (100 ng/ml) for different time points as indicated. Western blotting analysis was performed by using antibodies against different MAP kinases as described in Example 8. FIGS. 6C and 6D. Effect of PD98059 on ML-1-induced phosphorylation of ERK1/2 in PBECs (FIG. 6C) and HUVECs (FIG. 6D). The cells were preincubated with PD98059 ([…]) or DMSO vehicle control for 1 hour, followed by stimulation of PBECs and HUVECs with medium or ML-1 for 20 minutes or 10 minutes, respectively. The results shown are representative of three separate experiments.
# For analysis of activation of MAP kinases, PBECs were treated with IL-17 (100 ng/ml) for various time periods, with or without the MEK 1/2 inhibitor PD98059 ([…]; Calbiochem, La Jolla, Calif.) (15), the p38 inhibitor SB202190 (0.5-10 μM; ref. 16), or a vehicle control, DMSO (Me2SO) for 1 hour. […] Following the treatment, the cells were washed with ice-cold PBS. Cell pellets were immediately lysed in cold lysis buffer [20 mM Tris (pH 7.4), 4 mM EDTA, 2 mM EGTA, 1 mM PMSF, […] aprotinin, 200 mg/ml leupeptin, 50 mM NaF, 5 mM NaRP2O7, 1 mM Na3VO4, and 1% Nonidet P40; all purchased from Sigma]. Extracts (1×10^6 cell equivalents/lane) were suspended with an equal volume of 2× loading buffer [0.1 M Tris-HCl (pH 6.8)], 4% SDS, 0.005% bromophenol blue, and 20% glycerol) containing 2-ME (0.7 M) and subjected to 4-20% Tris-glycine gel electrophoresis (NOVEX, San Diego, Calif.). Gels were then transferred to PVDF membranes (BIO-RAD, Hercules, Calif.) with a Trans Blot apparatus (NOVEX). The membranes were immersed overnight in This-buffered saline/Tween 20 containing 5% nonfat dry skim milk (Carnation, Los Angeles, Calif.).
# (§2) Immunoreactive proteins were detected using antibodies against various kinases and phosphorylated kinases. […] Western blotting detection reagents (Amersham) and Hyper ECL luminescence detection film (Amersham) were used. […]
# p38 = assay: Western blotting of p38 activation in ML-1-stimulated cells; conditions: any time point, FIG. 6A (PBECs)
# Procedure: as §1
# For analysis of activation of MAP kinases, PBECs were treated with IL-17 (100 ng/ml) for various time periods, with or without the MEK 1/2 inhibitor PD98059 ([…]; Calbiochem, La Jolla, Calif.) (15), the p38 inhibitor SB202190 (0.5-10 μM; ref. 16), or a vehicle control, DMSO (Me2SO) for 1 hour. […] Following the treatment, the cells were washed with ice-cold PBS. […]
# as §2
molecule,measurement,setting,value
"ML-1: new member of the IL-17 cytokine family, SEQ ID NO:2; His-tagged recombinant protein expressed in COS-7 cells and affinity purified (protein, listed as Homo sapiens, His tag) MKLDIGIINENQRVSMSRNIESRSTSPWNYTVTWDPNRYPSEVVQAQCRNLGCINAQGKEDISMNSVPIQQETLVVRRKHQGCSVSFQLEKVLVTVGCTCVTPVIHHVQ",IL-8 protein expression,"IL-8; ELISA of supernatants, 48 hours",enhanced
same,IL-8 transcript expression,IL-8; RT-PCR,enhanced
same,time of maximum phosphorylation of ERK1/2,ERK1/2,10 min
same,time of return of ERK1/2 phosphorylation to baseline levels,ERK1/2,≤ 60 min
same,activation of p38 kinase,p38,No activation
